Measured values as given in article PMC6265327, “Structure of DNA-CMG-Pol epsilon elucidates the roles of the non-catalytic polymerase modules in the eukaryotic replisome” (Nature Communications, 2018).

T1: Mcm5, subunit of the purified CMG (yeast (strains based on W303), UniProt P29496 1-775)
T1 construct: Mcm5, subunit of yeast CMG; The Mcm5 chain of m4; source: yeast overexpression strain yJCZ3, purified as part of CMG
T1 sequence: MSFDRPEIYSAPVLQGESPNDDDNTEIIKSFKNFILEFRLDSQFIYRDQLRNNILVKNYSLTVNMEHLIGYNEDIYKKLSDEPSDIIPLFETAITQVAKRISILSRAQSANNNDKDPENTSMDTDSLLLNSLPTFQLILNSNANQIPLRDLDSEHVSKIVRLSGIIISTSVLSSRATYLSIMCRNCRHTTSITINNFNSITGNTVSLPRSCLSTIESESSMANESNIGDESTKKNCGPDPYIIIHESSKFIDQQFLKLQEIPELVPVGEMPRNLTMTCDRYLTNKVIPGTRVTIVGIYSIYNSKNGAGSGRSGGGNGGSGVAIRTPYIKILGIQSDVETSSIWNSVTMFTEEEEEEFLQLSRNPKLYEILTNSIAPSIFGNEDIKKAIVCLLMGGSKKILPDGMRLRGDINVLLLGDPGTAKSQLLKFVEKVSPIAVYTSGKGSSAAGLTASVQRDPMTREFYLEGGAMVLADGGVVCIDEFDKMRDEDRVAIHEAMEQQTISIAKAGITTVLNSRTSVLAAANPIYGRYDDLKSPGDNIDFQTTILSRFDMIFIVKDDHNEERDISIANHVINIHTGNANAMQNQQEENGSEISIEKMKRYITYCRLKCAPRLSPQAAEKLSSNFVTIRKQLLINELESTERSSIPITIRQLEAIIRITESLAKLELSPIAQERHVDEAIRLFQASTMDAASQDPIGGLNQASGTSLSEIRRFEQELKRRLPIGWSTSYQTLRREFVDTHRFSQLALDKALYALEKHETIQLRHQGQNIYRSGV

B1: Dpb2, subunit of the CBP-tagged Pol epsilon complexes (deltacat and exo-) (natural protein, yeast (strains based on W303), UniProt P24482 1-689, looked up)
chain: MFGSGNVLPVKIQPPLLRPLAYRVLSRKYGLSIKSDGLSALAEFVGTNIGANWRQGPATIKFLEQFAAVWKQQERGLFIDQSGVKEVIQEMKEREKVEWSHEHPIQHEENILGRTDDDENNSDDEMPIAADSSLQNVSLSSPMRQPTERDEYKQPFKPESSKALDWRDYFKVINASQQQRFSYNPHKMQFIFVPNKKQNGLGGIAGFLPDIEDKVQMFLTRYYLTNDRVMRNENFQNSDMFNPLSSMVSLQNELSNTNRQQQSSSMSITPIKNLLGRDAQNFLLLGLLNKNFKGNWSLEDPSGSVEIDISQTIPTQGHYYVPGCMVLVEGIYYSVGNKFHVTSMTLPPGERREITLETIGNLDLLGIHGISNNNFIARLDKDLKIRLHLLEKELTDHKFVILGANLFLDDLKIMTALSKILQKLNDDPPTLLIWQGSFTSVPVFASMSSRNISSSTQFKNNFDALATLLSRFDNLTENTTMIFIPGPNDLWGSMVSLGASGTLPQDPIPSAFTKKINKVCKNVVWSSNPTRIAYLSQEIVIFRDDLSGRFKRHRLEFPFNESEDVYTENDNMMSKDTDIVPIDELVKEPDQLPQKVQETRKLVKTILDQGHLSPFLDSLRPISWDLDHTLTLCPIPSTMVLCDTTSAQFDLTYNGCKVINPGSFIHNRRARYMEYVPSSKKTIQEEIYI
notes: Dpb2, second largest subunit of yeast Pol epsilon; The complexes carry a CBP tag; The N-terminal domain is not seen in the deltacat map; also called NTD-Dpb2; CTD-Dpb2; source: yeast overexpression strain, galactose-induced; purified as part of Pol epsilon deltacat or exo- (calmodulin beads, Mono Q, gel filtration)

What was measured:
Experiment in all cases: cryo-EM structure; 250 nM CMG bound to a desthiobiotin-labelled pre-formed DNA fork on streptavidin beads with 2 mM ATPgammaS, then 80 nM Pol epsilon exo-, 30 °C, eluted with biotin; no crosslinker; 4.9 Å
Details in all cases: both partners purified
[1] = biological target: T2, Mcm3, subunit of the purified CMG (yeast (strains based on W303), UniProt P24279 1-971)
T2 construct: Mcm3, subunit of yeast CMG; The Mcm3 chain of m4; source: yeast overexpression strain yJCZ3, purified as part of CMG
T2 sequence (P24279 whole entry): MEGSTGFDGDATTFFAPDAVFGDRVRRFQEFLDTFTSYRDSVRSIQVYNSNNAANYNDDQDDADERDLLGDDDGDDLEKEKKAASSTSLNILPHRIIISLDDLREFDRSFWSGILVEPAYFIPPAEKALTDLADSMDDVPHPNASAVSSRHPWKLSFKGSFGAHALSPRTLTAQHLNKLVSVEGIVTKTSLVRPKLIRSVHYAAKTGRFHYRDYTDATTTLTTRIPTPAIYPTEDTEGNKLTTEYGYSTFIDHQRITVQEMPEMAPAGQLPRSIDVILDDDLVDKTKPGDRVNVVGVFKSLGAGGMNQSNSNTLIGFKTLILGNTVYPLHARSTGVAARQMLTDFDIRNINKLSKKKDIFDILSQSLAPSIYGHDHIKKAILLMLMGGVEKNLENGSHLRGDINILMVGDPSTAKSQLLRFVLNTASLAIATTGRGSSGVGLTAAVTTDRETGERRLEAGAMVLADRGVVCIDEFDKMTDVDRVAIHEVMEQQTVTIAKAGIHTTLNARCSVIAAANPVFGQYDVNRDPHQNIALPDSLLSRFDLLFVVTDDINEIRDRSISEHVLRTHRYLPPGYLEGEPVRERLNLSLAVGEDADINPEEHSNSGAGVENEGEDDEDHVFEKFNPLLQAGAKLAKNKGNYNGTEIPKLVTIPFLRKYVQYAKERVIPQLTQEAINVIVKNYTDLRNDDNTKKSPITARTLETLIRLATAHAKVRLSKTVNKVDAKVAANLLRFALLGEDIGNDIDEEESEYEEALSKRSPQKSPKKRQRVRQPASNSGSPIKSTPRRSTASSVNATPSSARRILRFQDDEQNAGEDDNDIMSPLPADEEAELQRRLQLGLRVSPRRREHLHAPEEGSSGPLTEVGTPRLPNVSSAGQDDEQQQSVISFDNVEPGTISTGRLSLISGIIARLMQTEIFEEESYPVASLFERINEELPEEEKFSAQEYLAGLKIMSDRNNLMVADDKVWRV

[2] = biological target: T1, Mcm5, subunit of the purified CMG
[3] = biological target: B1

| binding result [1] | binding result [2] | binding result [3] | Binder |
| --- | --- | --- | --- |
| binds | binds |  | B1 |
|  |  | binds | Psf1, GINS subunit of the purified CMG (natural protein, yeast (strains based on W303), Psf1, GINS subunit of yeast CMG; The Psf1 chain of m4; source: yeast overexpression strain yJCZ3, purified as part of CMG) MYGDLGNKLVLEAKRTKQLYARSNQDVNLPMYHEDIIRNILKEVSNLRKNTEYLKEQQQLGMLDDKVAKCQYFVTLLCMERNKRCLLAYQRLRTDILDSMAWNNNGLDLMSSITFSQQDTNNLSHQEQEYLKEYCDLITDLKSGDLVDIDLSGSLVPPSDVFIDVRVLKDAGEIQTEYGVFNLIKDSQFFVRQSDVERLIQQGYLQKI |
